Reference: patent US20210214414A1 (Pfizer, published 2021)

Experiments:
Rat SLIT1-N = biological target: T1, Rat SLIT1-N (rat, UniProt O88279 34-1124, limits assumed); experiment: HTRF competition: d2-labelled rat SLIT1-N binding to human ROBO2 on HEK293 cells; geometric mean, n=3
T1 construct: domain: SLIT1-N; d2-labelled in the HTRF assay
T1 sequence (looked up): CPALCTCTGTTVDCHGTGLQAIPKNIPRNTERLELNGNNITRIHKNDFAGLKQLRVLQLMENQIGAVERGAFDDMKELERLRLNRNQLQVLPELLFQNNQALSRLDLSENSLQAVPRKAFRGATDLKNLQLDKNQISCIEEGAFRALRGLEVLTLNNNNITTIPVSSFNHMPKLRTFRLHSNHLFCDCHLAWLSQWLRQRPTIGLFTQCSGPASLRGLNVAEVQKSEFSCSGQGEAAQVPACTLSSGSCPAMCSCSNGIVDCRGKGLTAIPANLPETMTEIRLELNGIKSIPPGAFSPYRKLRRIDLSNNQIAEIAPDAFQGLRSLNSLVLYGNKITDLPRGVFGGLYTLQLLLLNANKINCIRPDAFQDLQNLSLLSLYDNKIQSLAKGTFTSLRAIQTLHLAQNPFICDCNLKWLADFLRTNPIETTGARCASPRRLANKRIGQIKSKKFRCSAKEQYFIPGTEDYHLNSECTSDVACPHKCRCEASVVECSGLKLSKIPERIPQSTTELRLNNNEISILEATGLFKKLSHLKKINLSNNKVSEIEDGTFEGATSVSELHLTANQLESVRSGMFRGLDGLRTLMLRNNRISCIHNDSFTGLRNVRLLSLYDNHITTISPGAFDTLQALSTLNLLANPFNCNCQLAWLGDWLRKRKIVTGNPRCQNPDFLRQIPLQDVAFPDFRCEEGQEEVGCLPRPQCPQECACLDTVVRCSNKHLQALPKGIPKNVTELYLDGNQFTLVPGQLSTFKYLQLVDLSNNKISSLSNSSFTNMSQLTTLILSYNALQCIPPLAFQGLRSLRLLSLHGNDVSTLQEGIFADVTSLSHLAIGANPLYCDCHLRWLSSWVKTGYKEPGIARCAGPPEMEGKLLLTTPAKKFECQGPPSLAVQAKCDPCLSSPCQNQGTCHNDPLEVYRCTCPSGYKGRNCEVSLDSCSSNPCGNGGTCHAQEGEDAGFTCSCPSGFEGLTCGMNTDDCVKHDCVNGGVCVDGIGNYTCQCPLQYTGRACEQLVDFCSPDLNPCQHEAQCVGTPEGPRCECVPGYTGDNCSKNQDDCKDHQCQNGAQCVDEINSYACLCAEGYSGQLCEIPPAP
Description: After incubation, fluorescence at 665 nm and 620 nm was measured on an Envision multilabel plate reader. The HTRF Ratio was calculated as follows: fluorescence at 665 nm/fluorescence at 620 nm×10,000. […] The IC₅₀ for each SLITx-N was determined using an 11-point, 4-fold dilution series with a top concentration of 4000 nM.

Rat SLIT2-N = biological target: T2, Rat SLIT2-N (rat, UniProt Q9WVC1 31-766, limits assumed); experiment: SPR, ROBO2-Fc 2.2 captured by anti-human Fc on a C1 chip, rat SLIT2-N as analyte, 1:1 model
T2 construct: domain: SLIT2-N (N terminal fragment)
T2 sequence (looked up): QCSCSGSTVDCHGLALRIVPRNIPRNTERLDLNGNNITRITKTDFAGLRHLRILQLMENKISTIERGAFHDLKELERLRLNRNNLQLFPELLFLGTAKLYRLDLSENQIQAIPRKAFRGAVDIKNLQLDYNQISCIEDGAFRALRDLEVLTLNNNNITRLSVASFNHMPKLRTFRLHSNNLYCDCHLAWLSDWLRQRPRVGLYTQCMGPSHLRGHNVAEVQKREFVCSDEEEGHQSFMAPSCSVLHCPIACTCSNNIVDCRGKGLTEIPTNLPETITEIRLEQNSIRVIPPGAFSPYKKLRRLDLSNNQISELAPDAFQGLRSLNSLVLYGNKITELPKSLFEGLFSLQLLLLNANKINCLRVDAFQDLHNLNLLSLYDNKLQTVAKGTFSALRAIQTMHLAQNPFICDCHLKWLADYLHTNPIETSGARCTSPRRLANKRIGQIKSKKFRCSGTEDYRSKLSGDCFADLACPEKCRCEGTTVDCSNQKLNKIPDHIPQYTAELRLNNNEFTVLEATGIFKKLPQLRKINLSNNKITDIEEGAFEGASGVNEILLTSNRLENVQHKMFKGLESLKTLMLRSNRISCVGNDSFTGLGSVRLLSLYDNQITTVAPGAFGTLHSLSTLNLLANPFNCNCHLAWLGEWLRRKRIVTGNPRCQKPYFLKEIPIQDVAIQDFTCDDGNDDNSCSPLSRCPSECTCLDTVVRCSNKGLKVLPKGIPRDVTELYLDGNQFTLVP
Description: HBS-EP was used as a diluent. […] An 8 point 2-fold dilution series was performed on the SLIT2 ligands, ranging from 2 nM to 15.6 pM using HBS-EPB as the diluent. […] Association of the indicated SLIT2 ligand was followed for 120 s and dissociation monitored for 180 s. The apparent binding affinity was determined using a simple 1:1 interaction model of the kinetic rate constants.

IC50 (Rat SLIT1-N): 8.3 nM | Kd (Rat SLIT2-N): 0.543 nM
B1: ROBO2-Fc 2.2 (Fc fusion)
chain: SRLRQEDFPPRIVEHPSDVIVSKGEPTTLNCKAEGRPTPTIEWYKDGERVETDKDDPRSHRMLLPSGSLFFLRIVHGRRSKPDEGSYVCVARNYLGEAVSRNASLEVALLRDDFRQNPTDVVVAAGEPAILECQPPRGHPEPTIYWKKDKVRIDDKEERISIRGGKLMISNTRKSDAGMYTCVGTNMVGERDSDPAELTVFERGGSGGSEPKSSDKTHTCPPCPAPEAAGAPSVFLFPPKPKDTLMISRTPEVTCVVVDVSHEDPEVKFNWYVDGVEVHNAKTKPREEQYNSTYRVVSVLTVLHQDWLNGKEYKCKVSNKALPAPIEKTISKAKGQPREPQVYTLPPSREEMTKNQVSLTCLVKGFYPSDIAVEWESNGQPENNYKTTPPVLDSDGSFFLYSKLTVDKSRWQQGNVFSCSVMHEALHNHYTQKSLSLSPG
notes: Labelled with Alexa Fluor 647 in the flow cytometry assay; also called ROBO-Fc 2.2; ROBO2-Fc 2.2-AF647
